The values below come from the supplement of paper PMC9112550, “Optimization of the antimicrobial peptide Bac7 by deep mutational scanning” (BMC Biology, 2022).
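Also: peptides expressed intracellularly from a pBAD plasmid library in pooled LB shake-flask culture, induced with 0.3% L-arabinose, DNA abundance read by NGS, three biological replicates, DESeq2 with apeglm shrinkage.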

In this data set the test system is Escherichia coli TOP10. The experiment in a line: shrunken log2 fold change of peptide-encoding DNA abundance (4.5 h post-induction vs induction); higher = less antimicrobial activity (less host growth inhibition). The conditions noted are these: time post-induction: 4.5 h; library: site-saturation at positions 5, 18, 19, 20.
For RRIRMRPPRLPRPRPRPNWNPRP, the “shrunken log2 fold change” value was 0.344.

Consider RRIRLRPPRLPRPRPRPCCHPRP, for which the “shrunken log2 fold change” value was -0.215.

For RRIRFRPPRLPRPRPRPEPSPRP, the “shrunken log2 fold change” value was determined as 0.378.

With RRIRGRPPRLPRPRPRPWAVPRP, the “shrunken log2 fold change” value is -0.142.

For the sequence RRIRARPPRLPRPRPRPETHPRP, the “shrunken log2 fold change” value amounted to 0.56.

Turning to RRIRHRPPRLPRPRPRPTRIPRP, the “shrunken log2 fold change” value is -0.0296.

In the case of RRIRMRPPRLPRPRPRPRFQPRP, the “shrunken log2 fold change” value was 0.268.

As to RRIRTRPPRLPRPRPRPYKQPRP, the “shrunken log2 fold change” value was -0.0217.

Consider RRIRVRPPRLPRPRPRPIKMPRP, for which the “shrunken log2 fold change” value was -0.697.

Turning to RRIRLRPPRLPRPRPRPRWRPRP, the “shrunken log2 fold change” value turned out to be 0.463.

As to RRIRCRPPRLPRPRPRPVDPPRP, the “shrunken log2 fold change” value came out at 0.227.

On to RRIRRRPPRLPRPRPRPTPEPRP, for which the “shrunken log2 fold change” value came to 0.572.

Consider RRIRSRPPRLPRPRPRPRWFPRP, for which the “shrunken log2 fold change” value worked out at 0.0783.

For the sequence RRIRRRPPRLPRPRPRPISMPRP, the “shrunken log2 fold change” value worked out at 0.0655.

Turning to RRIRLRPPRLPRPRPRPAACPRP, the “shrunken log2 fold change” value is 0.267.

For the sequence RRIRARPPRLPRPRPRPMMKPRP, the “shrunken log2 fold change” value was -0.146.

With RRIRERPPRLPRPRPRPYQEPRP, the “shrunken log2 fold change” value is -0.255.

Regarding RRIRSRPPRLPRPRPRPAWVPRP, the “shrunken log2 fold change” value is 0.441.

For RRIRSRPPRLPRPRPRPECTPRP, the “shrunken log2 fold change” value is 0.169.

Consider RRIRLRPPRLPRPRPRPKHVPRP, for which the “shrunken log2 fold change” value was -0.0799.

In the case of RRIRMRPPRLPRPRPRPIAFPRP, the “shrunken log2 fold change” value is -0.0147.

Turning to RRIRLRPPRLPRPRPRPMPCPRP, the “shrunken log2 fold change” value is -0.12.

As to RRIRMRPPRLPRPRPRPPDYPRP, the “shrunken log2 fold change” value was 0.345.

In the case of RRIRYRPPRLPRPRPRPSGHPRP, the “shrunken log2 fold change” value is -0.265.

As for RRIRIRPPRLPRPRPRPIRTPRP, the “shrunken log2 fold change” value is -0.288.

As for RRIRVRPPRLPRPRPRPPCRPRP, the “shrunken log2 fold change” value was found to be 2.01.

Regarding RRIRCRPPRLPRPRPRPYDAPRP, the “shrunken log2 fold change” value is -0.334.

With RRIRWRPPRLPRPRPRPHTRPRP, the “shrunken log2 fold change” value is -0.0595.

In the case of RRIRHRPPRLPRPRPRPEFWPRP, the “shrunken log2 fold change” value was 0.42.

On to RRIRDRPPRLPRPRPRPVHGPRP, for which the “shrunken log2 fold change” value came to 1.43.

As to RRIRARPPRLPRPRPRPYRAPRP, the “shrunken log2 fold change” value was -0.141.

In the case of RRIRDRPPRLPRPRPRPVWAPRP, the “shrunken log2 fold change” value was found to be 0.548.

In the case of RRIRGRPPRLPRPRPRPPSWPRP, the “shrunken log2 fold change” value was 1.24.

Take RRIRTRPPRLPRPRPRPKTNPRP: the “shrunken log2 fold change” value is -0.157.

Take RRIRRRPPRLPRPRPRPCRRPRP: the “shrunken log2 fold change” value was found to be 0.0946.

In the case of RRIRHRPPRLPRPRPRPESTPRP, the “shrunken log2 fold change” value came out at 0.0536.

Consider RRIRCRPPRLPRPRPRPYDCPRP, for which the “shrunken log2 fold change” value is -0.451.

For the sequence RRIRHRPPRLPRPRPRPREGPRP, the “shrunken log2 fold change” value was 0.264.

Consider RRIRGRPPRLPRPRPRPTWLPRP, for which the “shrunken log2 fold change” value came out at 2.72.

RRIRNRPPRLPRPRPRPDCFPRP: the “shrunken log2 fold change” value was -0.306.

Consider RRIRLRPPRLPRPRPRPACIPRP, for which the “shrunken log2 fold change” value was -0.0506.

With RRIRTRPPRLPRPRPRPQCMPRP, the “shrunken log2 fold change” value was -0.133.

With RRIRQRPPRLPRPRPRPIAIPRP, the “shrunken log2 fold change” value was 0.00329.

Regarding RRIRDRPPRLPRPRPRPACHPRP, the “shrunken log2 fold change” value was 0.0454.

As for RRIRFRPPRLPRPRPRPGGTPRP, the “shrunken log2 fold change” value was -0.0188.

RRIRKRPPRLPRPRPRPDHRPRP: the “shrunken log2 fold change” value worked out at 0.139.

Regarding RRIRQRPPRLPRPRPRPHNFPRP, the “shrunken log2 fold change” value is -0.154.

Take RRIRQRPPRLPRPRPRPQDRPRP: the “shrunken log2 fold change” value was -0.254.

For RRIRFRPPRLPRPRPRPTGKPRP, the “shrunken log2 fold change” value amounted to 0.205.

For the sequence RRIRNRPPRLPRPRPRPCDTPRP, the “shrunken log2 fold change” value was -0.0137.
